Data taken from article PMC7385124, “The molecular basis of thioalcohol production in human body odour” (Scientific Reports, 2020).

Experiments:
[1] = molecular target: Staphylococcus hominis PatB (cysteine-thiol lyase, PLP-dependent C-S lyase) (Staphylococcus hominis); assay: crystal structure; ShPatB at 15 mg/mL in 20 mM Tris pH 8, 50 mM NaCl; hanging drops, 4% Tacsimate pH 6, 12% PEG 3,350, room temperature; without and with 20 mM L-cycloserine
[2] = test system: CC(C)(CCO)SC[C@H](N)C(=O)O; assay: purified protein, by the assay type; set-up: DTNB thiol release, A412, continuous steady-state Michaelis-Menten kinetics of C-S lyase; settings: pH 7.8; 37.0 °C
Protocol: (§1) In vitro activity assays were performed using an Epoch2 (BioTek) plate reader. Reactions were measured in 96-well plate. A continuous assay, described previously[3] was used to measure 3M3SH. A 200 μL reaction contained […], variable amounts of substrate and 0.4 mM DTNB in 50 mM KPi and 200 mM NaCl, pH 7.8. […] Each reaction was incubated at 37 °C for 30 min. Release of the thiol 3M3SH was measured by reaction with DTNB to form 2-nitro-5-thiobenzoic acid (TNB) which is measured at A412 nm every minute. Background rate of DTNB decomposition was subtracted in each assay. Michaelis–Menten plots were derived from 6 to 8 substrate concentrations using Prism Version 5.01 (GraphPad) to calculate the Kcat and KM. Enzyme concentrations were assumed to be the concentration of PLP-bound enzyme with two active sites per enzyme. Velocity curves for all in vitro kinetics are shown in the supplementary information (Supplementary Information Figures S10–S12). Next, we cloned and overexpressed genes encoding a representative range of PatB-type enzymes, with two MetC proteins as controls (Fig. 2, denoted by coloured dots) and purified the proteins for biochemical analysis.

[3] = test system: CCCC(C)(CCO)SC[C@H](N)C(=O)O; assay: purified protein, by the assay type; set-up: DTNB thiol release, A412, continuous steady-state Michaelis-Menten kinetics of C-S lyase; settings: pH 7.8; 37.0 °C
Protocol: as §1

Q: Which stoichiometry N [1] does the source give for “Staphylococcus hominis PatB (cysteine-thiol lyase, PLP-dependent C-S lyase) (enzyme)” here?
A: Its stoichiometry N is 2.

Q: With EcTnaA (Escherichia coli K-12) as the substance, how does the Km [2] read?
A: Its Km is 3300 µM.

Q: And the kcat [2]?
A: Its kcat is 0.0117 s⁻¹.

Q: And the kcat/Km [2]?
A: The kcat/Km was 3.33 M⁻¹ s⁻¹.

Q: What about the Km [3] of the same substance?
A: Its Km is 2150 µM.

Q: What about the kcat [3] of the same substance?
A: Its kcat is 0.051 s⁻¹.

Q: What about the kcat/Km [3] of the same substance?
A: The kcat/Km was 23.7 M⁻¹ s⁻¹.
